The subject of the series is O=c1[nH]c(=O)c2[nH]cnc2[nH]1. Description: cells, lysate or membranes. The following applies: labelled compound.

Drawing on article doi:10.1101/2021.09.27.461913v1, this text covers Km for one substance.

In the case of UapA (Aspergillus nidulans FGSC A4), the Km is on record as 6 ± 2 µM.

One may read the Km as the substrate concentration at which the rate is half of its maximum.
